Assay [1] has as its target human CXCR5 (human) (UniProt P32302). Put plainly: FACS on cells expressing the CXCR5 construct.
In assay [2] the target is mouse CXCR5 (mouse) (UniProt Q04683). Put plainly: FACS on cells expressing the CXCR5 construct.
Assay [3] has as its target human CXCR5 (human) (UniProt P32302). Put plainly: cell-based or functional assay.

Sequence of human CXCR5 (human) (P32302 whole entry): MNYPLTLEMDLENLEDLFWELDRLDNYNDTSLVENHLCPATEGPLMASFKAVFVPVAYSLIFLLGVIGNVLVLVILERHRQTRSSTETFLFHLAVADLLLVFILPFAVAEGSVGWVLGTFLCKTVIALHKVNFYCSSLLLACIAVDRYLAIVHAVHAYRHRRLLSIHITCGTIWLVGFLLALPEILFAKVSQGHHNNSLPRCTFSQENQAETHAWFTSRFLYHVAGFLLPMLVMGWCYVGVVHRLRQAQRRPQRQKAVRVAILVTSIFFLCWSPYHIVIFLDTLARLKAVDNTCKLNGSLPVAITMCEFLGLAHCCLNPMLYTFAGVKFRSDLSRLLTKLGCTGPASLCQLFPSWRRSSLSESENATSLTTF
Sequence of mouse CXCR5 (mouse) (Q04683 whole entry): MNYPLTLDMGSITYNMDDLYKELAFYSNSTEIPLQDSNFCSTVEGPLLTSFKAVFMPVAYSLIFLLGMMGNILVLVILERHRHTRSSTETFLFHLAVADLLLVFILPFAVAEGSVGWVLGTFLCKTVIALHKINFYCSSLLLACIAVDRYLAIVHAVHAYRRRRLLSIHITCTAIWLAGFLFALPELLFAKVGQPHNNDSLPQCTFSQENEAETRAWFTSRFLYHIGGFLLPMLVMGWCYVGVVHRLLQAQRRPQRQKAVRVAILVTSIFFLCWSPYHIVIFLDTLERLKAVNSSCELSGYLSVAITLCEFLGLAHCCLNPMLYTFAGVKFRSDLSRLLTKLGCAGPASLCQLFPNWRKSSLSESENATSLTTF

Regarding “rabbit anti-human CXCR5 (catalog ab46218, Abcam) (antibody)”, the results for the GMFI in assay [1] and in assay [2] were 18600 GMFI and 1040 GMFI, respectively.

On to “rat anti-mouse CXCR5 (catalog MAB6198, R&D systems) (antibody)”, for which the figures for the GMFI in assay [1] and in assay [2] were 2460 GMFI and 12500 GMFI, respectively.

Substance “recombinant hCXCL13 (from UniProt O43927 23-109) (ligand)” returned an IC80, inhibition of forskolin-triggered cAMP production in assay [3] of 600 pM.

The record behind these values is patent US20210101970A1.
